Common to all, as to assay: ELISA
What all share (set-up): key to grade: 0 = <0.5 OD, 1 = 0.5-1.0 OD, 4 = 1-4 OD
In general terms: An ELISA detects its analyte on a solid surface through an enzyme-linked reagent.

One assay deals with T1, 645.
T1 construct: H3-74 L2-14; also called PIN645
The source says:
(§1) Before specificity screening, all of the clonal immunogen-positive hybridoma supernatants were re-screened on the immunogen, a non-family member Id protein, and KLH, if animals were immunized with Id protein that has been conjugated KLH. As described above, this screen identifies HC-specific clones but not mAbs against the light chain constant region. Clones identified positive to the immunogen and KLH were […]. Those found positive to the immunogen but not to the non-family member Id protein or KLH were tittered on the immunogen. In addition to normalizing for different binding affinities and concentrations, each hybridoma supernatant was titered on the fully human form of the Id protein used as the immunogen(s) for the V regions. The titer or dilution resulting in an ELISA absorbance of 2.5 to 3 OD after 30 min. incubation time was then used. Hybridoma specificity was determined by screening against available Id proteins expressing the same HV and KV or LV as well as different HV, KV and LV. The final ELISA results are expressed as follows: 0 (<0.5 OD), 1 (0.5-1.0 OD), or 4 (1-4 OD). Positive hybridoma supernatants are categorized according to specificity: anti-Id, anti-constant region (HC, KC or LC), or V region (HV, KV, LV family or family member).
(§2) In general, the fully human Id protein or proteins containing the immunogen V regions were coated onto 96-well ELISA plates at 2.5-5 ug/mL in carbonate buffer pH 9.6 and incubated at 4° C. for up to 14 days. On the day of the ELISA, plates were brought to RT and blocked with Tris-Tween-20, pH 7.6 for 15-60 min. at RT. Following a NaCl and Triton X-100 wash, diluted hybridoma cell culture supernatants were incubated overnight at 4° C. Hybridoma supernatant dilutions ranged from 1:2 to 1:25 and were prepared in PBS with 5% BSA. Plates were washed and incubated with HRP-conjugated goat anti-mouse IgG-specific detecting antibody. A chromogenic substrate (TMB) was used to measure the amount of mouse antibody bound to each well. The reaction was stopped at or before 30 minutes with IN H2SO4 and plates were read immediately. Absorbency readings at 450 nm ranging between 0-4 OD and using Molecular Devices plate reader and SOFTMAX PRO software.

For another assay, the target named is T2, 305.
T2 construct: H3-48 L1-40; also called PIN305
From the text: as §1, §2

A further assay has as its target T3, 1067.
T3 construct: H1-8 L2-23; also called PIN1067
From the text: as §1, §2

The target in the next assay is T4, 796.
T4 construct: H3-23 L3-25; also called PIN796
From the text: as §1, §2

The target in another assay is T5, 733.
T5 construct: H3-48 L2-14; also called PIN733
From the text: as §1, §2

In a further assay the target is T6, 604.
T6 construct: H4-34 L2-8; also called PIN604
From the text: as §1, §2

In another assay the target is T7, 662.
T7 construct: fully human Id protein; also called PIN662
T7 sequence (heavy, as listed by the source): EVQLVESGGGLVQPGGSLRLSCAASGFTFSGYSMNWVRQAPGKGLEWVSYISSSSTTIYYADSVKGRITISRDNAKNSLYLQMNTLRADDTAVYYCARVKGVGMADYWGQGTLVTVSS
From the text: as §1, §2

A further assay has as its target T8, 746.
T8 construct: H4-39 L2-8; also called PIN746
From the text: as §1, §2

Another assay has as its target T9, 1131.
T9 construct: H4-31 L3-25; also called PIN1131
From the text: as §1, §2

The target in a further assay is T10, 534.
T10 construct: H3-11 L1-47; also called PIN534
From the text: as §1, §2

The target of another assay is T11, 747.
T11 construct: H3-23 L2-14; also called PIN747
From the text: as §1, §2

The target of a further assay is T12, 857.
T12 construct: H5-51 L2-14; also called PIN857
From the text: as §1, §2

The next assay has as its target T13, 1089.
T13 construct: H3-73 L2-23; also called PIN1089
From the text: as §1, §2

The target in the next assay is T14, 196.
T14 construct: H4-31 L2-23; also called PIN196
From the text: as §1, §2

Another assay has as its target T15, 552.
T15 construct: H1-18 L2-8; also called PIN552
From the text: as §1, §2

Assay [1] concerns the target T16, PIN574 fully human Id protein (HV4-39 / LV1-40) (human).
T16 construct: Recombinant patient-derived idiotype immunoglobulin used as antigen, fully human form; also called Immunogen (for 20H5); not shown: human immunoglobulin heavy chain constant region, isotype G3 (HCG3); human immunoglobulin lambda light chain constant region (LC)
From the text: as §1, §2

The target of a further assay is T17, 1060.
T17 construct: H4-39 L2-23; also called PIN1060
From the text: as §1, §2

The next assay has as its target T18, 164.
T18 construct: H4-39 L2-14; also called PIN164
From the text: as §1, §2

T16 sequence (VH, as listed by the source, chain 1 of 2): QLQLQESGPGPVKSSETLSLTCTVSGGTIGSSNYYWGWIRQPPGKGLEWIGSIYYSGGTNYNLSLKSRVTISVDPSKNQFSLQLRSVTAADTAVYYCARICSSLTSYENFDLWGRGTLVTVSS
T16 sequence (VL, as listed by the source, chain 2 of 2): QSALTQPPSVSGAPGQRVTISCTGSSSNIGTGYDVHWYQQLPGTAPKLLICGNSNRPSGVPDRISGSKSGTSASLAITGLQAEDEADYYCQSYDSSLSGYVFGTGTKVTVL

B1: mAb clone 4H11 (antibody, V domains shown)
VH: EVKLVESGGGLVKPGGSLKLSCAASGFAFSNYDMSWVRQTPEKRLEWVATIRSDDSYTYYPDSVKGRFTISRDNARNTLYLQMSSLRSEDTAFYYCARREGNYAMDYWGQGTSVTVSS
VL: DIQMTQSPASLSVSVGETVTITCRASENIYSYLAWYQQKKGKSPQLLVYAATNLGDGVPTRFSGSGSGTQYSLKINSLQSEDFGSYYCQHFWGNPLTFGAGTKLELKR
notes: Mouse hybridoma mAb
As to B1, the grade with 645 turned out to be 1; with 305, 4; in the assay with 1067 it was 4; in the assay with 796, 4; in the assay with 733, 4; with 604, 4. The grade is 4 with 662; 1 with 746; 4 with 1131; 4 in the assay with 534; 1 in the assay with 747; 4 in the assay with 857. The grade (in the assay with 1089; with 196; with 552; in assay [1]; in the assay with 1060; with 164) was 4 in each case.

The record behind these values is patent US20070134249A1 (GENITOPE, published 2007).
